This passage reports binding result and EC50 (read off the curve) results from patent US20180044429A1 (CELLDEX THERAPEUTICS, published 2018).

Positions count from the first letter of the chain named.

The term EC50 (read off the curve) denotes the concentration giving half of the maximal effect.

Experiment [1] concerns the target T1, recombinant human CD27 (soluble, captured on anti-FLAG coated ELISA plates) (human, UniProt P26842 20-191).
T1 construct: also called rCD27; sCD27
T1 sequence: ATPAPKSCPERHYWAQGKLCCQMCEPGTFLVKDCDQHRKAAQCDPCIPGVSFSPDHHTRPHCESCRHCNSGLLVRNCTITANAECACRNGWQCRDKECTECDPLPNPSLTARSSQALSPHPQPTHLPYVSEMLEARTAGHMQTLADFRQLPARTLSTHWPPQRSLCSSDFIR
Put plainly: ELISA; CD27 captured on plates coated with anti-FLAG antibody, detection with goat anti-human IgG Fc-HRP; panel title 'Recombinant CD27'. The procedure:
In this example, the binding activity of the CD27 agonists prepared as described in Example 2 was examined. Binding to recombinant CD27 (rCD27) was tested by standard ELISA. Human CD27 was captured on ELISA plates coated with anti-FLAG antibody, followed by incubation with CD27 agonists. A goat anti-human IgG Fc-HRP (horseradish peroxidase) antibody and substrate Super Blue TMB were used for detection.
The CD27 agonists tested were 1F5mAb-1F5sFv (sFv), 1F5mAb-2C2sFv (sFv) and 1F5mAb-CD70. The full-length, unconjugated IgG form of the anti-human CD27 monoclonal antibodies 1F5 and 2C2 were used as positive controls. Binding to a mutant form of soluble CD27, in which the arginine at position 87 was substituted with alanine (R87A), which is within the 1F5 binding site, was also tested.
(In general: In an ELISA, binding on a coated surface is turned into a signal by an enzyme label.)

Experiment [2] addresses soluble recombinant human CD27 with R87A substitution (human) (UniProt P26842). The experiment can be described thus: ELISA; mutated (R87A) CD27 captured on plates coated with anti-FLAG antibody, detection with goat anti-human IgG Fc-HRP; panel title 'mutated CD27'.

B1: human anti-human CD27 monoclonal antibody 2C2 (full-length, unconjugated IgG) (antibody, V domains shown)
VH: QVQLVESGGGVVQPGRSLRLSCAASGFTFSSYDIHWVRQAPGKGLEWVAVIWNDGSNKYYADSVKGRFTISRDNSTNSLFLQMNSLRAEDTAVYYCVGGTADLEHWDQGTLVTVSS
VL: DIQMTQSPSSLSASVGDRVTITCRASQGISSWLAWYQQKPEKAPKSLIYAASSLQSGVPSRFSGSGSGTDFTLTISSLQPEDFATYYCQQYNSYPLTFGGGTKVEIK
notes: Tested as full-length unconjugated IgG; also called 2C2 mAb
In the case of B1, the binding result in experiment [1] is “binds”. Besides, the concentration giving a half-maximal response (EC50 (read off the curve)) in experiment [2] came out at 0.02 µg/mL.

B2: human anti-human CD27 monoclonal antibody 1F5 (full-length, unconjugated IgG) (antibody, V domains shown)
VH: QVQLVESGGGVVQPGRSLRLSCAASGFTFSSYDMHWVRQAPGKGLEWVAVIWYDGSNKYYADSVKGRFTISRDNSKNTLYLQMNSLRAEDTAVYYCARGSGNWGFFDYWGQGTLVTVSS
VL: B1 VL with S31R, S93T, L96R, G100Q
notes: also called 1F5 mAb; anti-CD27 antibody (1F5)
For B2, the binding result in experiment [1] was “binds”.
